From patent publication US20050287518A1 (Scripps Research, published 2005)

Columns and labels:
[1] = biological target: T1, Recombinant 6His-tagged RhoA pre-equilibrated with GTPγS (UniProt P61586 1-193, limits assumed); experiment: fluorescence of the solvatochromic dye on mero-CBD, in vitro
T1 construct: also called RhoA-GTPγS; not shown: 6His tag
Procedure: (§1) Analyses of the solvatochromic activation indicator—A solution of mero-CBD (300 nM) in assay buffer was mixed 1:1 (v/v) with solutions of cdc42 (concentration as indicated), pre-equilibrated with 10 mM GDP or GTPγS as described in Knaus, U. G., Heyworth, P. G., Kinsella, B. T., Cumutte, J. T., and Bokoch, G. M. (1992) J. Biol. Chem. 267, 23575-23582. Emission wavelength of 630 nm and excitation wavelength of 600 nm were used to acquire excitation and emission spectra, respectively. For nucleotide dependence, cdc42 (500 nM) was pre-incubated with varying concentrations of GTPγS (1 to 500 nM). Rac1 and RhoA GTPases were pre-equilibrated with GTP […]S in the same manner.
(§2) Fluorescence increase as a measure of CBD-cdc42 interaction—The functionality and specificity of mero-CBD was characterized by measuring fluorescence in the presence of saturating amounts of cdc42-GDP or cdc42-GTPγS. […] Negligible increase (<5%) was also observed in the presence of activated Rac1. No effect on the mero-CBD fluorescence was observed when RhoA-GTPγS was present. Furthermore, even in the presence of excess of activated Rac1 and RhoA, GDP- and GTPγS-bound forms of cdc42 were easily distinguished by CBD-A4C fluorescence (data not shown).

[2] = biological target: T2, Recombinant 6His-tagged cdc42 bound to GTPγS (UniProt P60953 1-191, limits assumed); experiment: fluorescence of mero-CBD with saturating amounts of cdc42-GTPγS
T2 construct: Pre-equilibrated with GTPγS; also called cdc42-GTPγS; not shown: 6His tag
T2 sequence (P60953 whole entry): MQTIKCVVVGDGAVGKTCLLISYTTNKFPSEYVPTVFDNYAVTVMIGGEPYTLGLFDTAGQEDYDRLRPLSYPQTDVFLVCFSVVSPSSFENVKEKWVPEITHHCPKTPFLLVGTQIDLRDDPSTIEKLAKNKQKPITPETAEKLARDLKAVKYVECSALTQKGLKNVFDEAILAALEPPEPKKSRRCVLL
Procedure: as §1, §2

[3] = biological target: T2, Recombinant 6His-tagged cdc42 bound to …; experiment: fluorescence of the solvatochromic dye on CBD, comparison of three cysteine mutants (FIG. 15)
Procedure: as §1

T1 sequence (P61586 whole entry): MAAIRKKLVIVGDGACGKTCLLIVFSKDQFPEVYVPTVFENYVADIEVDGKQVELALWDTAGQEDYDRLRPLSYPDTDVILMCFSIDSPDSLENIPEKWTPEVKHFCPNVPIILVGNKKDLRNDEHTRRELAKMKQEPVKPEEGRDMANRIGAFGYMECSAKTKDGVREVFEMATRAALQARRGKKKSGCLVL

B1: mero-CBD-F271C conjugate (Cdc42-binding fragment of human WASP, amino acids 201 to 321, F271C, C-terminal 6His fusion, labeled with the merocyanine dye of FIG. … (other)
chain: DIQNPDITSSRYRGLPAPGPSPADKKRSGKKKISKADIGAPSGFKHVSHVGWDPQNGFDVNNLDPDLRSLCSRAGISEAQLTDAETSKLIYDFIEDQGGLEAVRQEMRRQEPLPPPPPPSHHHHHH
modifications: chain 1 pos 71 (WASP 271): Cys carrying the thiol-reactive merocyanine dye of FIG. 11, written C
notes: Dye-to-protein ratio 0.8 to 1.2 for single-dye conjugates; also called CBD biosensor; CBD-mero
[1]
  binding result: no binding
[2]
  fold increase in excitation and emission maxima: ~3.5 fold
[3]
  fold fluorescence change on binding: ~3.5 fold
